Test results taken from patent US20220403005.

How the values were obtained:
[1] = test system: FVIII-R336Q/R562Q (FVIII-QQ)
[2] = test system: FVIII-R372Q
[3] = test system: wild-type B-domain deleted FVIII (FVIII-WT)
Sequence of wild-type B-domain deleted FVIII (FVIII-WT) (chain, as listed by the source, stated change not applied): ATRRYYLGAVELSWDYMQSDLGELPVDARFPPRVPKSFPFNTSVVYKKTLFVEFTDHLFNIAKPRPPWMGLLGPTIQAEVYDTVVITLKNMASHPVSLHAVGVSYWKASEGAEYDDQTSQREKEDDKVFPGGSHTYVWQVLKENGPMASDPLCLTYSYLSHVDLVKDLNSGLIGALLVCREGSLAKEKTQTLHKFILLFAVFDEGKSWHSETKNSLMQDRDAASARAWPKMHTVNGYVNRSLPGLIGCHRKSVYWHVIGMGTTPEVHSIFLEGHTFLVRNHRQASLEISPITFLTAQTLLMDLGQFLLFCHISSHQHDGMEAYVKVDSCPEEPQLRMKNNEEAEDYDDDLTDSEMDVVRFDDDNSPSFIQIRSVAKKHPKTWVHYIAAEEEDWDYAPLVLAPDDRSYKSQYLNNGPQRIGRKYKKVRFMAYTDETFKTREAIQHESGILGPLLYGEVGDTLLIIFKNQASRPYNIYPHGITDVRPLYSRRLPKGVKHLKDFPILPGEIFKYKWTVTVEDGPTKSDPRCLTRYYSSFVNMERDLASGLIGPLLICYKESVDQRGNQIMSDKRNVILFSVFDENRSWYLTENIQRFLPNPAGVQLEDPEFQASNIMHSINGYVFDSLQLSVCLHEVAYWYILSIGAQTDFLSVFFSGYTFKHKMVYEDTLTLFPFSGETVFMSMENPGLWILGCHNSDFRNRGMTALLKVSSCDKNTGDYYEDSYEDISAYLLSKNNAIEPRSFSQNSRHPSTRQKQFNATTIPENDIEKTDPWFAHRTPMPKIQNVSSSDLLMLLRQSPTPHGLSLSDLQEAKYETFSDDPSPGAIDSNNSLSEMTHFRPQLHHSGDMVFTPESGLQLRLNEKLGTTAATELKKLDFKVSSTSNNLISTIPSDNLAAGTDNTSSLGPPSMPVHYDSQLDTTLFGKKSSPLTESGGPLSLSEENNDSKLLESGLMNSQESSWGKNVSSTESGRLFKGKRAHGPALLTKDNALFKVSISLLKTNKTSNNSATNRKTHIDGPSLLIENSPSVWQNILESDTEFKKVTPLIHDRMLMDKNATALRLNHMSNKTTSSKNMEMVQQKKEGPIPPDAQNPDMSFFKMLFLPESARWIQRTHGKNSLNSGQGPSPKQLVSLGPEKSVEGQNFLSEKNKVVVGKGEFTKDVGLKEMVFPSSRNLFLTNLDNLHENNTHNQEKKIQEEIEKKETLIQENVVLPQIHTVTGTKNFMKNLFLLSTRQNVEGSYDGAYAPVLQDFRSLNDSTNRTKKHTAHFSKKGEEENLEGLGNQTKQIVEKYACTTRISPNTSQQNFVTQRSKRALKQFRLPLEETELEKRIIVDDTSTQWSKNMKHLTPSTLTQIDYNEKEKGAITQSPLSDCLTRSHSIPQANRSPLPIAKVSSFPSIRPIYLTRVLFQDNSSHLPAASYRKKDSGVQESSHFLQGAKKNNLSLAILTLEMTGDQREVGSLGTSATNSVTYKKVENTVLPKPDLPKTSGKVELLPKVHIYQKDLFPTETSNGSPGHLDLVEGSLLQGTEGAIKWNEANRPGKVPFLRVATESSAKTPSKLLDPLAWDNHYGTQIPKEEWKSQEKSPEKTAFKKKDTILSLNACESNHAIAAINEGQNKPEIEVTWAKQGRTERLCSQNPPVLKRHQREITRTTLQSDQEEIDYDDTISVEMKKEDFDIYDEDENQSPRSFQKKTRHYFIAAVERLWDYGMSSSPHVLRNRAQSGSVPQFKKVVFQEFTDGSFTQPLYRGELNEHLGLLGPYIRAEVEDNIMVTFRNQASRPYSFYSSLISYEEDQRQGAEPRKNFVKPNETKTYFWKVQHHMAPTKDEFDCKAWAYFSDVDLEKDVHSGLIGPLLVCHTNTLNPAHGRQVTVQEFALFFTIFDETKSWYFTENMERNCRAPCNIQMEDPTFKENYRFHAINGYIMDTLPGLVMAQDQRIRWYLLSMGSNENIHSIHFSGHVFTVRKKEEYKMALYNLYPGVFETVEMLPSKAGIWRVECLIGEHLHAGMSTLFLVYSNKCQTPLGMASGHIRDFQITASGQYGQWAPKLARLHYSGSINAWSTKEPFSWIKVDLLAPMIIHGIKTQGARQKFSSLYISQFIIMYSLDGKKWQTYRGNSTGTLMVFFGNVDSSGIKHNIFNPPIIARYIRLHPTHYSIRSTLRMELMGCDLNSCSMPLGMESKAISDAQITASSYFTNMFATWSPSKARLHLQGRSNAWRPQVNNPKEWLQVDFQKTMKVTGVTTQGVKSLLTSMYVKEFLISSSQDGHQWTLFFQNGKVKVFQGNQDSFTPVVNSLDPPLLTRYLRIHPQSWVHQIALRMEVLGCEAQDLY

Sequence of FVIII-R336Q/R562Q (FVIII-QQ) (chain, as listed by the source R336Q R562Q): as the sequence (chain, as listed by the source, stated change not applied) above, with R336Q, R562Q counted along it
Sequence of FVIII-R372Q (chain, as listed by the source R372Q): as the sequence (chain, as listed by the source, stated change not applied) above, with R372Q counted along it

| Substance | residual FVIII activity (intrinsic Xase assay) after 1-hour APC incubation [1] | residual FVIII activity (intrinsic Xase assay) after incubation with 6 nM APC and 100 nM protein S [1] | western blot of reaction products after 30-minute incubation with APC [2] | loss of FVIII activity (intrinsic Xase assay) after 1-hour APC incubation [3] | residual FVIII activity (intrinsic Xase assay) after incubation with 6 nM APC and 100 nM protein S [3] | SDS-PAGE of cleavage products after incubation with thrombin [1] | SDS-PAGE of cleavage products after incubation with thrombin [3] |
| --- | --- | --- | --- | --- | --- | --- | --- |
| activated protein C (APC) | the protein maintained >90% activity following a 1-hour APC incubation | combined PS and APC incubation also accelerated FVIII-QQ loss of function, albeit to a lesser extent than FVIII-WT | incubating a FVIII-R372Q mutant with APC, which did not produce the A2 fragment | FVIII-WT lost approximately 75% activity after a 1-hour APC incubation | FVIII-WT lost nearly all function within 15 minutes of combined APC and PS incubation |  |  |
| thrombin |  |  |  |  |  | Thrombin cleaved both proteins to yield fragments representing cleavage at R1689 (A3-C1-C2; Mr=70,000) and R740/R372 (A1, Mr=50,000 and A2, Mr=43,000), corresponding to FVIIIa | Thrombin cleaved both proteins to yield fragments representing cleavage at R1689 (A3-C1-C2; Mr=70,000) and R740/R372 (A1, Mr=50,000 and A2, Mr=43,000), corresponding to FVIIIa |
